Laboratory results: patent US12281147

How the values were obtained:
[1] = target: wild-type human IL-21R (human) (UniProt Q9HBE5); assay: AlphaSeq yeast mating assay, unbuffered media
[2] = target: wild-type human IL-21R (human) (UniProt Q9HBE5); assay: AlphaSeq yeast mating assay, pH 5 media
[3] = target: wild-type human IL-21R (human) (UniProt Q9HBE5); assay: AlphaSeq yeast mating assay, pH 7 media
[4] = target: wild-type human IL-21R (human) (UniProt Q9HBE5); assay: AlphaSeq yeast mating assay, pH 6 media
[5] = target: human interleukin 21 receptor (IL-21R) (human) (UniProt Q9HBE5); assay: AlphaSeq yeast mating, unbuffered media
[6] = target: human interleukin 21 receptor (IL-21R) (human) (UniProt Q9HBE5); assay: AlphaSeq yeast mating, pH 6 media
[7] = target: human interleukin 21 receptor (IL-21R) (human) (UniProt Q9HBE5); assay: AlphaSeq yeast mating, pH 5 media
[8] = target: human interleukin 21 receptor (IL-21R) (human) (UniProt Q9HBE5); assay: AlphaSeq yeast mating, pH 7 media
[9] = target: recombinant human IL-21R His tag (Acro Biosystems) (human) (UniProt Q9HBE5); assay: BLI

Row | Substance | Kd [2] [nM] | Kd [5] [nM] | Kd [6] [nM] | Kd [7] [nM] | Kd [8] [nM] | further results
1 | IL-21_F60R (from UniProt Q9HBE4 32-152) (ligand) | 76 | – | – | – | – | Kd [4]: 26 nM; Kd [3]: 27 nM
2 | IL-21_R34K (from UniProt Q9HBE4 32-152) (ligand) | – | 14000 | 47 | 390 | – | –
3 | IL-21_L61I (from UniProt Q9HBE4 32-152) (ligand) | – | – | 37 | 370 | 83 | –
4 | IL-21_Q145H (from UniProt Q9HBE4 32-152) (ligand) | – | 32000 | 54 | 1000 | – | –
5 | IL-21_human_R38K Fc fusion protein (from UniProt Q9HBE4 30-162) | – | – | – | – | – | Kd [9]: 313 nM
6 | IL-21_I43M (from UniProt Q9HBE4 32-152) (ligand) | 110 | – | – | – | – | Kd [4]: 27 nM; Kd [1]: 3500 nM
7 | IL-21_I96V (from UniProt Q9HBE4 32-152) (ligand) | 190 | – | – | – | – | Kd [1]: 3000 nM; Kd [3]: 62 nM
8 | IL-21_E59S (from UniProt Q9HBE4 32-152) (ligand) | 41 | – | – | – | – | Kd [4]: 16 nM
9 | IL-21_human_P108G Fc fusion protein (from UniProt Q9HBE4 30-162) | – | – | – | – | – | Kd [9]: 29 nM
10 | IL-21_R34Y (from UniProt Q9HBE4 32-152) (ligand) | 6700 | – | – | – | – | Kd [4]: 350 nM; Kd [1]: 3400 nM
11 | IL-21_human_F79P Fc fusion protein (from UniProt Q9HBE4 30-162) | – | – | – | – | – | Kd [9]: 11.1 nM
12 | IL-21_R34E (from UniProt Q9HBE4 32-152) (ligand) | – | – | – | – | – | Kd [3]: 210 nM
13 | IL-21_W73L (from UniProt Q9HBE4 32-152) (ligand) | – | 33000 | 200 | 5200 | – | –
14 | IL-21_N70H (from UniProt Q9HBE4 32-152) (ligand) | – | – | – | – | – | Kd [4]: 20 nM; Kd [1]: 4400 nM
15 | IL-21_A87N (from UniProt Q9HBE4 32-152) (ligand) | 110 | – | – | – | – | Kd [4]: 25 nM; Kd [3]: 120 nM
16 | IL-21_F76M (from UniProt Q9HBE4 32-152) (ligand) | 77 | – | – | – | – | Kd [4]: 21 nM; Kd [3]: 75 nM
17 | IL-21_human_V53N Fc fusion protein (from UniProt Q9HBE4 30-162) | – | – | – | – | – | Kd [9]: 87.1 nM
18 | IL-21_V57R (from UniProt Q9HBE4 32-152) (ligand) | – | 14000 | 16 | 50 | 50 | –
19 | IL-21_E72H (from UniProt Q9HBE4 32-152) (ligand) | – | – | – | – | – | Kd [4]: 11 nM; Kd [1]: 3400 nM; Kd [3]: 21 nM
20 | IL-21_I45A (from UniProt Q9HBE4 32-152) (ligand) | – | 8400 | 25 | – | – | –
21 | IL-21_N88K (from UniProt Q9HBE4 32-152) (ligand) | – | 21000 | 43 | 170 | 140 | –
22 | IL-21_L120K (from UniProt Q9HBE4 32-152) (ligand) | – | – | 25 | 47 | 46 | –
23 | IL-21_human_D44P Fc fusion protein (from UniProt Q9HBE4 30-162) | – | – | – | – | – | Kd [9]: 1360 nM
24 | IL-21_D33N (from UniProt Q9HBE4 32-152) (ligand) | – | 14000 | 27 | 120 | 45 | –
25 | IL-21_W73A (from UniProt Q9HBE4 32-152) (ligand) | – | 26000 | 360 | 3500 | 170 | –
26 | IL-21_human_F76M Fc fusion protein (from UniProt Q9HBE4 30-162) | – | – | – | – | – | Kd [9]: 11.8 nM
27 | IL-21_W73Q (from UniProt Q9HBE4 32-152) (ligand) | – | 15000 | 88 | – | 120 | –

Row | Substance | Kd [2] [nM] | Kd [5] [nM] | Kd [6] [nM] | Kd [7] [nM] | Kd [8] [nM] | further results
28 | IL-21_D33A (from UniProt Q9HBE4 32-152) (ligand) | – | – | – | – | 83 | –
29 | IL-21_A63T (from UniProt Q9HBE4 32-152) (ligand) | – | – | – | – | – | Kd [4]: 21 nM; Kd [1]: 3300 nM; Kd [3]: 210 nM
30 | IL-21_S74N (from UniProt Q9HBE4 32-152) (ligand) | – | 32000 | – | 48000 | 410 | –
31 | IL-21_N54H (from UniProt Q9HBE4 32-152) (ligand) | 77 | – | – | – | – | Kd [4]: 20 nM; Kd [3]: 27 nM
32 | IL-21_W73Y (from UniProt Q9HBE4 32-152) (ligand) | 190 | – | – | – | – | Kd [4]: 85 nM
33 | IL-21_human_V53T Fc fusion protein (from UniProt Q9HBE4 30-162) | – | – | – | – | – | Kd [9]: 7.86 nM
34 | IL-21_R34G (from UniProt Q9HBE4 32-152) (ligand) | – | 9900 | 150 | 6400 | – | –
35 | IL-21_V98H (from UniProt Q9HBE4 32-152) (ligand) | – | 8800 | 26 | 170 | – | –
36 | IL-21_Q150R (from UniProt Q9HBE4 32-152) (ligand) | – | 14000 | 50 | – | 94 | –
37 | IL-21_E72S (from UniProt Q9HBE4 32-152) (ligand) | – | – | 140 | 530 | 340 | –
38 | IL-21_D33Q (from UniProt Q9HBE4 32-152) (ligand) | 84 | – | – | – | – | Kd [4]: 21 nM; Kd [1]: 7500 nM
39 | IL-21_I37V (from UniProt Q9HBE4 32-152) (ligand) | 58 | – | – | – | – | Kd [1]: 3200 nM
40 | IL-21_E72I (from UniProt Q9HBE4 32-152) (ligand) | – | – | – | – | – | Kd [4]: 15 nM; Kd [1]: 4700 nM
41 | IL-21_P62T (from UniProt Q9HBE4 32-152) (ligand) | – | – | – | – | – | Kd [1]: 4500 nM; Kd [3]: 46 nM
42 | IL-21_S109R (from UniProt Q9HBE4 32-152) (ligand) | 36 | – | – | – | – | Kd [4]: 15 nM; Kd [1]: 6000 nM
43 | IL-21_Y52Q (from UniProt Q9HBE4 32-152) (ligand) | – | 63000 | 390 | 55000 | 89 | –
44 | IL-21_S109K (from UniProt Q9HBE4 32-152) (ligand) | – | 40000 | 26 | 43 | – | –
45 | IL-21_E68K (from UniProt Q9HBE4 32-152) (ligand) | 27 | – | – | – | – | Kd [1]: 3300 nM
46 | IL-21_I37Q (from UniProt Q9HBE4 32-152) (ligand) | – | – | 35 | 250 | 140 | –
47 | IL-21_N54K (from UniProt Q9HBE4 32-152) (ligand) | 190 | – | – | – | – | Kd [1]: 8000 nM
48 | IL-21_D44N (from UniProt Q9HBE4 32-152) (ligand) | – | 60000 | 92 | 1200 | – | –
49 | IL-21_P107Y (from UniProt Q9HBE4 32-152) (ligand) | 120 | – | – | – | – | Kd [4]: 58 nM; Kd [1]: 6500 nM
50 | IL-21_P133I (from UniProt Q9HBE4 32-152) (ligand) | – | – | – | – | – | Kd [4]: 44 nM; Kd [3]: 110 nM
51 | IL-21_L120H (from UniProt Q9HBE4 32-152) (ligand) | – | – | – | 34 | – | –
52 | IL-21_human_W73V Fc fusion protein (from UniProt Q9HBE4 30-162) | – | – | – | – | – | Kd [9]: 6.3 nM
53 | IL-21_human_I45G Fc fusion protein (from UniProt Q9HBE4 30-162) | – | – | – | – | – | Kd [9]: 12 nM

Further lines, with some results ahead:

Row | Kd [2] [nM] | Kd [5] [nM] | Kd [6] [nM] | Kd [7] [nM] | Kd [8] [nM] | Substance | further results
54 | 140 | – | – | – | – | IL-21_S74A (from UniProt Q9HBE4 32-152) (ligand) | Kd [1]: 4400 nM; Kd [3]: 160 nM
55 | 340 | – | – | – | – | IL-21_F60I (from UniProt Q9HBE4 32-152) (ligand) | Kd [1]: 7700 nM; Kd [3]: 190 nM
56 | – | 20000 | 96 | – | 190 | IL-21_R34W (from UniProt Q9HBE4 32-152) (ligand) | –
57 | – | 11000 | – | 51 | – | IL-21_S142H (from UniProt Q9HBE4 32-152) (ligand) | –
58 | – | 10000 | – | – | 200 | IL-21_R34H (from UniProt Q9HBE4 32-152) (ligand) | –
59 | – | 30000 | – | 9600 | – | IL-21_V53T (from UniProt Q9HBE4 32-152) (ligand) | –
60 | – | 60000 | – | – | 25 | IL-21_S99H (from UniProt Q9HBE4 32-152) (ligand) | –
61 | – | 11000 | 950 | 20000 | 260 | IL-21_H118R (from UniProt Q9HBE4 32-152) (ligand) | –
62 | 110 | – | – | – | – | IL-21_S86I (from UniProt Q9HBE4 32-152) (ligand) | Kd [3]: 52 nM
63 | – | 8500 | 24 | 160 | 47 | IL-21_N51P (from UniProt Q9HBE4 32-152) (ligand) | –
64 | 26 | – | – | – | – | IL-21_L152H (from UniProt Q9HBE4 32-151) (ligand) | Kd [4]: 12 nM; Kd [1]: 4400 nM
65 | 40 | – | – | – | – | IL-21_E68R (from UniProt Q9HBE4 32-152) (ligand) | Kd [4]: 16 nM; Kd [1]: 6300 nM
66 | – | – | – | 82 | 27 | IL-21_D33S (from UniProt Q9HBE4 32-152) (ligand) | –
67 | – | 16000 | 110 | 1000 | 140 | IL-21_T89L (from UniProt Q9HBE4 32-152) (ligand) | –
68 | – | 34000 | 550 | 9800 | 190 | IL-21_I95T (from UniProt Q9HBE4 32-152) (ligand) | –
69 | – | 14000 | – | 190 | 170 | IL-21_S77K (from UniProt Q9HBE4 32-152) (ligand) | –
70 | 99000 | – | – | – | – | IL-21_H118K (from UniProt Q9HBE4 32-152) (ligand) | Kd [4]: 3100 nM; Kd [3]: 370 nM
